Measurements taken from US20080166806A1, “Attenuated Effector Ligand” (priority 2007, published 2008).
Changes are numbered by the printed parent chain. Numbers in names are those of the source.

B1: FasL (protein, UniProt P48023 130-281, looked up)
Tumor necrosis factor ligand …: QIGHPSPPPEKKELRKVAHLTGKSNSRSMPLEWEDTYGIVLLSGVKYKKGGLVINETGLYFVYSKVYFRGQSCNNLPLSHKVYMRNSKYPQDLVMMEGKMMSYCTTGQMWARSSYLGAVFNLTSADHLYVNVSELSLVNFEESQTFFGLYKL
notes: wild-type FasL ligand used as comparator
B2: FasL (P206R) (protein, UniProt P48023 130-281, looked up, variant P206R)
Tumor necrosis factor ligand …: B1 Tumor necrosis factor ligand … with P77R
B3: conjugate: mutated FasL (P206R) conjugated to mouse monoclonal anti-CD20 antibody with SMCC (conjugate, UniProt P48023 130-281, looked up, variant P206R)
Tumor necrosis factor ligand …: B1 Tumor necrosis factor ligand … with P77R
modifications: conjugated via SMCC to mouse anti-CD20 antibody

Test system: Burkitt lymphoma cells
Test: Dose response of FasL ligands on Burkitt lymphoma cells
Type: cell-based
Settings: dose response over 1 μM to 1 nM, 96 well plate
Procedure: Dose response over a range of 1 μM to 1 nM is determined for each of the ligands.

Molecule | rank order of effectiveness
B1 | rank order of effectiveness is wild-type, conjugate and mutated FasL
B2 | rank order of effectiveness is wild-type, conjugate and mutated FasL
B3 | rank order of effectiveness is wild-type, conjugate and mutated FasL
